The term IC50 denotes the concentration that inhibits the measured activity by half.

Where no end group is shown, it is not given here. [ ]: non-standard residue; d: D form.

B1: … (TGF-beta receptor type-2 peptide) (peptide)
peptide: VGTARYMAPEVLESR
B2: … (Hematological and neurological expressed 1 protein peptide) (peptide)
peptide: EKPVPAAPVPSPVAPAP
B3: … (E3 ubiquitin-protein ligase RNF13 peptide) (peptide)
peptide: AQRAGYKAAIVHNVDS
B4: … (D-3-phosphoglycerate dehydrogenase peptide) (peptide)
peptide: AGTGVDNVDLEAATR
modifications: not fully specified
B5: … (Murinoglobulin-1 peptide) (peptide)
peptide: GKYTYGKPVPGHVKI
B6: … (Inter alpha-trypsin inhibitor, heavy chain 4 peptide) (peptide)
peptide: AGKLQDQGPDVLLAKVS
B7: … (Tissue alpha-L-fucosidase peptide) (peptide)
peptide: GIVNLKSPKTTSATKI
B8: … (B-cell differentiation antigen CD72 peptide) (peptide)
peptide: DGELTYENVQVSPVPGGPP
B9: … (Protein Ighv2-2 peptide) (peptide)
peptide: GGSTDYNAAFISRLS
B10: … (Retinoid-inducible serine carboxypeptidase peptide) (peptide)
peptide: KWKALYTDPKSSETA
B11: … (Complement receptor type 2 peptide) (peptide)
peptide: LLPKYSFAKPSIVSDK
B12: … (TGF-beta receptor type-2 peptide) (peptide)
peptide: VGTARYMAPEVLESRM
B13: … (Protein tyrosine phosphatase receptor type C-associated protein peptide) (peptide)
peptide: SDLHAFSGSAAWDDSAG
B14: … (Protein EVI2B peptide) (peptide)
peptide: KPTVTVVSPLPNDSINPQP
B15: … (B-cell receptor CD22 peptide) (peptide)
peptide: NDWTVDHPQTLFAWEG
B16: … (Protein Siglecg peptide) (peptide)
peptide: QVLSWSSPVGSRTLA
B17: … (Histone H2AX peptide) (peptide)
peptide: AVLLPKKSSATVGPKAPAVGK
B18: … (Marginal zone B- and B1-cell-specific protein peptide) (peptide)
peptide: IYEAYRQGQANLEAL
B19: … (Platelet endothelial cell adhesion molecule isoform 4 peptide) (peptide)
peptide: KPSIFHDAKSEIIKGHA
B20: … (Fc receptor-like A peptide) (peptide)
peptide: GPGSREAASPVAITVQE
B21: … (CCR4-NOT transcription complex subunit 3 peptide) (peptide)
peptide: APTSALGPKASPAPS
B22: … (Protein tyrosine phosphatase receptor type C-associated protein peptide) (peptide)
peptide: SDLHAFSGSAAWDDS
B23: … (Protein Igha peptide) (peptide)
peptide: KDITTVNFPPALASGGG
B24: …mV (Murinoglobulin-1 peptide) (peptide)
peptide: LEISYTGSRPASN[code m]V
modifications: not fully specified; printed as LEISYTGSRPASNmV (Murinoglobulin-1 peptide)
B25: … (Phosphoglycerate mutase 2 peptide) (peptide)
peptide: LNLPTGIPIVYEL
modifications: not fully specified
B26: … (Cathepsin S peptide) (peptide)
peptide: YSMGMHTYQVG
B27: … (Alpha-N-acetylglucosaminidase peptide) (peptide)
peptide: IRRYGVSQPDAVAAWK
modifications: not fully specified
B28: … (T-lymphocyte surface antigen Ly-9 peptide) (peptide)
peptide: HLNTYDGSHTLRVSQS

The assay has as its target soluble I-A^b-3R, mouse MHC-II protein (recombinant I-A^b) (mouse). The assay can be described thus: fluorescence polarisation; competition: 100 nM I-A^b-3R (3R cut off by thrombin, 1 U/ug), 25 nM Alexa488-labeled CLIP probe peptide, test peptide from 100 uM in 5-fold dilutions, 0.5 uM HLA-DM, read after 72 h at 37 C; 100 mM sodium citrate, 50 mM NaCl, 0.1% octyl glucoside, 5 mM EDTA, 1 mM DTT; three independent experiments, mean and SD. On the technique in general: Fluorescence polarisation rises when a labelled molecule tumbles more slowly, as on binding a larger partner.
For B1, the IC50 was 197 nM.
Consider B2, for which the IC50 amounted to 1140 nM.
For B3, the half-maximal inhibitory concentration (IC50) was 2420 nM.
As for B4, the IC50 was found to be 57500 nM.
In the case of B5, the IC50 was found to be 399 nM.
Regarding B6, the concentration for half-maximal inhibition (IC50) is 378 nM.
As for B7, the IC50 turned out to be 12800 nM.
In the case of B8, the IC50 came to 1360 nM.
Next, B9: 4960 nM; B10: 3450 nM; B11: 179 nM.
B12: the half-inhibitory concentration (IC50) was determined as 306 nM.
For the molecule B13, the IC50 came to 1920 nM.
Next, B14: 2250 nM; B15: 445 nM.
B16: the IC50 was found to be 152 nM.
For the molecule B17, the IC50 amounted to 13600 nM.
With B18, the IC50 is 1370 nM.
Next, B19: 4960 nM; B20: 466 nM; B21: 2300 nM.
As for B22, the IC50 was found to be 1090 nM.
As to B23, the IC50 amounted to 970 nM.
Turning to B24, the IC50 was 349 nM.
Next, B25: 54400 nM.
Take B26: the IC50 worked out at 74100 nM.
Consider B27, for which the IC50 amounted to 250 nM.
In the case of B28 it was 1360 nM.

(Values after PMC8116589, “Distinguishing Signal From Noise in Immunopeptidome Studies of Limiting-Abundance Biological Samples: Peptides Presented by I-A^b in C57BL/6 Mouse Thymus” (Frontiers in Immunology, 2021).)
